The values below are quoted from earlier work in PMC6653659.

This data set addresses glucocorticoid receptor LBD (Homo sapiens) (UniProt P04150).

The term Kd denotes the free concentration of one partner at which half of the binding sites on the other are occupied at equilibrium, for simple one-to-one binding. Take “glucocorticoid receptor LBD (from UniProt P04150)”: the equilibrium dissociation constant (Kd) is 1500 nM.
